Reference: IntAct's records for PubMed 35512704

B1: Speckle-type POZ protein (Homo sapiens), O43791 (parent)
chain: MSRVPSPPPPAEMSSGPVAESWCYTQIKVVKFSYMWTINNFSFCREEMGEVIKSSTFSSGANDKLKWCLRVNPKGLDEESKDYLSLYLLLVSCPKSEVRAKFKFSILNAKGEETKAMESQRAYRFVQGKDWGFKKFIRRDFLLDEANGLLPDDKLTLFCEVSVVQDSVNISGQNTMNMVKVPECRLADELGGLWENSRFTDCCLCVAGQEFQAHKAILAARSPVFSAMFEHEMEESKKNRVEINDVEPEVFKEMMCFIYTGKAPNLDKMADDLLAAADKYALERLKVMCEDALCSNLSVENAAEILILADLHSADQLKTQAVDFINYHASDVLETSGWKSMVVSHPHLVAEAYRSLASAQCPFLGPPRKRLKQS
partner: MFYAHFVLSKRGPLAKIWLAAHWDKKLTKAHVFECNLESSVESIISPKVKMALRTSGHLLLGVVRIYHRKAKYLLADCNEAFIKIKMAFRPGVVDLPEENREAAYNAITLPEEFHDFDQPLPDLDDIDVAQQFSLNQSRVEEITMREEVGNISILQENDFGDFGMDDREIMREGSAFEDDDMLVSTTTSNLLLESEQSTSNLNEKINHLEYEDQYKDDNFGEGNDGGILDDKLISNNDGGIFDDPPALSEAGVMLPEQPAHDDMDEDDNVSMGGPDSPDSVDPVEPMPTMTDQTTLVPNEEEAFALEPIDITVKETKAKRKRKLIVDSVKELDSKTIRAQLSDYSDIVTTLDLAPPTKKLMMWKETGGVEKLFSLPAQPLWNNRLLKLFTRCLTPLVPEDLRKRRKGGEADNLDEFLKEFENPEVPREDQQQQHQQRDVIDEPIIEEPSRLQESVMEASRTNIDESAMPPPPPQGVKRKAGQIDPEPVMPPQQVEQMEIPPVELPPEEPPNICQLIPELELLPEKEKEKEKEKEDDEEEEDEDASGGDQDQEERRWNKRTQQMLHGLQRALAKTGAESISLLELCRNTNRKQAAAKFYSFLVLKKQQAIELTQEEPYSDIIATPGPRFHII
B2: Speckle-type POZ protein (Homo sapiens), O43791 (parent)
chain: B1 chain
partner: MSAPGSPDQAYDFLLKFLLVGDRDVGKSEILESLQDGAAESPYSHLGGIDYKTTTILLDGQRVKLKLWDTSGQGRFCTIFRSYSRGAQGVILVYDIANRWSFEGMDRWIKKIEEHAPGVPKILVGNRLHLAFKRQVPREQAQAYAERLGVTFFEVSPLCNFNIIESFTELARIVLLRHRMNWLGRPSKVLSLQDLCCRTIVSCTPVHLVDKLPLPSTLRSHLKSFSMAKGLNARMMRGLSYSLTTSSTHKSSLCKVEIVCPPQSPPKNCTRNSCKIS

Variants of: B1
Details: with rad21_human RAD21, O60216

Variant | effect of a mutation on the interaction
MSRVPSPPPPAEMSSGPVAESWCYTQIKVVKFSYMWTINNFSFCREEMGEVIKSSTFSSGANDKLKWCLRVNPKGLDEESKDYLSLYLLLVSCPKSEVRAKCKFSILNAKGEETKAMESQRAYRFVQGKDWGFKKFIRRDFLLDEANGLLPDDKLTLFCEVSVVQDSVNISGQNTMNMVKVPECRLADELGGLWENSRFTDCCLCVAGQEFQAHKAILAARSPVFSAMFEHEMEESKKNRVEINDVEPEVFKEMMCFIYTGKAPNLDKMADDLLAAADKYALERLKVMCEDALCSNLSVENAAEILILADLHSADQLKTQAVDFINYHASDVLETSGWKSMVVSHPHLVAEAYRSLASAQCPFLGPPRKRLKQS [F102C] | with no effect

Variants of: B1
Details: with rad21_human RAD21, O60216
Remark: another data set of the same source

Variant | effect of a mutation on the interaction
MSRVPSPPPPAEMSSGPVAESWCYTQIKVVKFSYMWTINNFSFCREEMGEVIKSSTFSSGANDKLKWCLRVNPKGLDEESKDYLSLCLLLVSCPKSEVRAKFKFSILNAKGEETKAMESQRAYRFVQGKDWGFKKFIRRDFLLDEANGLLPDDKLTLFCEVSVVQDSVNISGQNTMNMVKVPECRLADELGGLWENSRFTDCCLCVAGQEFQAHKAILAARSPVFSAMFEHEMEESKKNRVEINDVEPEVFKEMMCFIYTGKAPNLDKMADDLLAAADKYALERLKVMCEDALCSNLSVENAAEILILADLHSADQLKTQAVDFINYHASDVLETSGWKSMVVSHPHLVAEAYRSLASAQCPFLGPPRKRLKQS [Y87C] | with no effect

Variants of: B1
Details: with rad21_human RAD21, O60216
Remark: another data set of the same source

Variant | effect of a mutation on the interaction
MSRVPSPPPPAEMSSGPVAESWCYTQIKVVKFSYMWTINNFSFCREEMGEVIKSSTFSSGANDKLKWCLRVNPKGLDEESKDYLSLYLLLVSCPKSEVRAKFKFSILNAKGEETKAMESQRAYRFVQGKDWGLKKFIRRDFLLDEANGLLPDDKLTLFCEVSVVQDSVNISGQNTMNMVKVPECRLADELGGLWENSRFTDCCLCVAGQEFQAHKAILAARSPVFSAMFEHEMEESKKNRVEINDVEPEVFKEMMCFIYTGKAPNLDKMADDLLAAADKYALERLKVMCEDALCSNLSVENAAEILILADLHSADQLKTQAVDFINYHASDVLETSGWKSMVVSHPHLVAEAYRSLASAQCPFLGPPRKRLKQS [F133L] | with no effect

Variants of: B1
Details: with rad21_human RAD21, O60216
Remark: another data set of the same source

Variant | effect of a mutation on the interaction
MSRVPSPPPPAEMSSGPVAESWCYTQIKVVKFSYMWTINNFSFCREEMGEVIKSSTFSSGANDKLKWCLRVNPKGLDEESKDYLSLYLLLVSCPKSEVRAKFKFSILNAKGEETKAMESQRAYRFVQGKDWGVKKFIRRDFLLDEANGLLPDDKLTLFCEVSVVQDSVNISGQNTMNMVKVPECRLADELGGLWENSRFTDCCLCVAGQEFQAHKAILAARSPVFSAMFEHEMEESKKNRVEINDVEPEVFKEMMCFIYTGKAPNLDKMADDLLAAADKYALERLKVMCEDALCSNLSVENAAEILILADLHSADQLKTQAVDFINYHASDVLETSGWKSMVVSHPHLVAEAYRSLASAQCPFLGPPRKRLKQS [F133V] | with no effect

Variants of: B2
Details: with rb40a_human RAB40A

Variant | effect of a mutation on the interaction
MSRVPSPPPPAEMSSGPVAESWCYTQIKVVKFSYMWTINNFSFCREEMGEVIKSSTFSSGANDKLKWCLRVNPKGLDEESKDYLSLYLLLVSCPKSEVRAKCKFSILNAKGEETKAMESQRAYRFVQGKDWGFKKFIRRDFLLDEANGLLPDDKLTLFCEVSVVQDSVNISGQNTMNMVKVPECRLADELGGLWENSRFTDCCLCVAGQEFQAHKAILAARSPVFSAMFEHEMEESKKNRVEINDVEPEVFKEMMCFIYTGKAPNLDKMADDLLAAADKYALERLKVMCEDALCSNLSVENAAEILILADLHSADQLKTQAVDFINYHASDVLETSGWKSMVVSHPHLVAEAYRSLASAQCPFLGPPRKRLKQS [F102C] | with no effect

Variants of: B2
Details: with rb40a_human RAB40A
Remark: another data set of the same source

Variant | effect of a mutation on the interaction
MSRVPSPPPPAEMSSGPVAESWCYTQIKVVKFSYMWTINNFSFCREEMGEVIKSSTFSSGANDKLKWCLRVNPKGLDEESKDYLSLYLLLVSCPKSEVRAKFKFSILNAKGEETKAMESQRAYRFVQGKDWGLKKFIRRDFLLDEANGLLPDDKLTLFCEVSVVQDSVNISGQNTMNMVKVPECRLADELGGLWENSRFTDCCLCVAGQEFQAHKAILAARSPVFSAMFEHEMEESKKNRVEINDVEPEVFKEMMCFIYTGKAPNLDKMADDLLAAADKYALERLKVMCEDALCSNLSVENAAEILILADLHSADQLKTQAVDFINYHASDVLETSGWKSMVVSHPHLVAEAYRSLASAQCPFLGPPRKRLKQS [F133L] | with no effect

Variants of: B2
Details: with rb40a_human RAB40A
Remark: another data set of the same source

Variant | effect of a mutation on the interaction
MSRVPSPPPPAEMSSGPVAESWCYTQIKVVKFSYMWTINNFSFCREEMGEVIKSSTFSSGANDKLKWCLRVNPKGLDEESKDYLSLYLLLVSCPKSEVRAKFKFSILNAKGEETKAMESQRAYRFVQGKDWGVKKFIRRDFLLDEANGLLPDDKLTLFCEVSVVQDSVNISGQNTMNMVKVPECRLADELGGLWENSRFTDCCLCVAGQEFQAHKAILAARSPVFSAMFEHEMEESKKNRVEINDVEPEVFKEMMCFIYTGKAPNLDKMADDLLAAADKYALERLKVMCEDALCSNLSVENAAEILILADLHSADQLKTQAVDFINYHASDVLETSGWKSMVVSHPHLVAEAYRSLASAQCPFLGPPRKRLKQS [F133V] | with no effect

Variants of: B2
Details: with rb40a_human RAB40A
Remark: another data set of the same source

Variant | effect of a mutation on the interaction
MSRVPSPPPPAEMSSGPVAESWCYTQIKVVKFSYMWTINNFSFCREEMGEVIKSSTFSSGANDKLKWCLRVNPKGLDEESKDYLSLCLLLVSCPKSEVRAKFKFSILNAKGEETKAMESQRAYRFVQGKDWGFKKFIRRDFLLDEANGLLPDDKLTLFCEVSVVQDSVNISGQNTMNMVKVPECRLADELGGLWENSRFTDCCLCVAGQEFQAHKAILAARSPVFSAMFEHEMEESKKNRVEINDVEPEVFKEMMCFIYTGKAPNLDKMADDLLAAADKYALERLKVMCEDALCSNLSVENAAEILILADLHSADQLKTQAVDFINYHASDVLETSGWKSMVVSHPHLVAEAYRSLASAQCPFLGPPRKRLKQS [Y87C] | with no effect
